Results on three substances are retold here after publication PMC12339742.

A short description of this series: turbidity assay; turbidity at 600 nm against protein concentration; 20 mM Tris-HCl, 150 mM NaCl pH 8.0, 20% (w/v) PEG2k; 96-well plate, quadruplicate; self-assembly into condensates. The conditions noted are these: other: turbidity assay.
Consider “PduP encapsulation peptide with its native linker fused to the N-terminus of mNeonGreen”, for which the “inflection of turbidity against protein concentration” value was 33.1 µM ± 0.4 µM. In the case of “Three serial repeats of the PduP EP and its native linker fused to the N-terminus of mNeonGreen” it was 19.7 µM; in that of “Two serial repeats of the PduP EP and its native linker fused to the N-terminus of mNeonGreen”, 15.5 µM.
